Test [1] has as its target cynomolgus monkey IL-21 (cynomolgus monkey). As to the kind of experiment: cell-based or functional assay.
The next test concerns the target rabbit IL-21 (rabbit). The experiment in a line: cell-based or functional assay.
Test [2] deals with human IL-21 (human) (UniProt Q9HBE4). The experiment in a line: cell-based or functional assay.
In a further test the target is mouse IL-21 (mouse) (UniProt Q9ES17). As to the kind of experiment: cell-based or functional assay.
Test [3] has as its target human IL-21 (human) (UniProt Q9HBE4). The experiment in a line: capture ELISA, biotin-IL-21 at 3.7 nM. For orientation: An ELISA detects its analyte on a solid surface through an enzyme-linked reagent.
Test [4] has the same target. The experiment in a line: capture ELISA, biotin-IL-21 at 0.05 nM.
For test [5] the target is unchanged. The experiment in a line: capture ELISA, biotin-IL-21 at 1.2 nM.
The target is the same in test [6]. As to the kind of experiment: capture ELISA, biotin-IL-21 at 11 nM.
The target is the same in test [7]. The experiment in a line: capture ELISA, biotin-IL-21 at 33 nM.
Test [8] shares this target. As to the kind of experiment: capture ELISA, biotin-IL-21 at 0.41 nM.
Test [9] shares this target. As to the kind of experiment: capture ELISA, biotin-IL-21 at 0.14 nM.

human IL-21 (human), sequence (Q9HBE4 32-162): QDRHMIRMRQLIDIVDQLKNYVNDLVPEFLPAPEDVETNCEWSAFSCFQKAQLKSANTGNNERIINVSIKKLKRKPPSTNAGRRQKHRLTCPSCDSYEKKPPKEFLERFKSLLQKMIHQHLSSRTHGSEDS
cynomolgus monkey IL-21 (cynomolgus monkey), sequence (Q9HBE4 other isoform, or with tags, fused parts or gaps): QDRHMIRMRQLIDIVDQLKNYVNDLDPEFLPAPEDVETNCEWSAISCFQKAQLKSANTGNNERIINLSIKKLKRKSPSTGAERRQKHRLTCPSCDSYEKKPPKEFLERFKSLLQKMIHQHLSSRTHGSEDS
rabbit IL-21 (rabbit), sequence (chain, as listed by the source limits assumed): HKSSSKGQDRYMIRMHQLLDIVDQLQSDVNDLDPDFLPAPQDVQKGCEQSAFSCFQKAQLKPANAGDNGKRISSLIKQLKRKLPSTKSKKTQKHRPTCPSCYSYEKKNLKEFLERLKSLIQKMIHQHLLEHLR

Consider “human IL-21R:Fc chimera (R&D Systems, cat #991-R2) (from UniProt Q9HBE5 20-232) (Fc fusion)”, for which the IC50, IM9 pan-STAT-luciferase reporter assay, IL-21 at 66.67 pM in [1] stood at 3920 pM. In the test with rabbit IL-21 (rabbit), this substance registered an IC50, IM9 pan-STAT-luciferase reporter assay, IL-21 at 66.67 pM of 321 pM. Moreover, in the test with human IL-21 (human) [2], the % of maximum IL-21-induced B cell proliferation at 0.1 nM inhibitor (SDEV 15.8) was found to be 83%, the % of maximum IL-21-induced B cell proliferation at 0.21 nM inhibitor (SDEV 10.8) came out at 99%, the % of maximum IL-21-induced B cell proliferation at 0.42 nM inhibitor (SDEV 6.43) was 87% and the % of maximum IL-21-induced B cell proliferation at 0.83 nM inhibitor (SDEV 6.33) was 109%. Besides, in the test with human IL-21 (human) [2], the % of maximum IL-21-induced B cell proliferation at 1.67 nM inhibitor (SDEV 12.6) was found to be 90%, the % of maximum IL-21-induced B cell proliferation at 3.33 nM inhibitor (SDEV 13.7) was 103%, the % of maximum IL-21-induced B cell proliferation at 13.3 nM inhibitor (SDEV 13.8) was found to be 77% and the % of maximum IL-21-induced B cell proliferation at 53.3 nM inhibitor (SDEV 6.2) is 83%. The substance also had an IC50, IM9 pan-STAT-luciferase reporter assay, IL-21 at 66.67 pM with human IL-21 (human) [2] of 271 pM. This substance displayed an IC50, IM9 pan-STAT-luciferase reporter assay, IL-21 at 66.67 pM with mouse IL-21 (mouse) of 3530 pM.

Substance human IgG4 isotype control antibody came in with an OD at 560 nm with human IL-21 (human) [3] of 0.06 OD. This substance gave an OD at 560 nm with human IL-21 (human) [4] of 0.06 OD. Besides, in the test with human IL-21 (human) [5], the OD at 560 nm was 0.06 OD. In addition, the OD at 560 nm in the test with human IL-21 (human) [6] worked out at 0.06 OD. In the test with human IL-21 (human) [7], this substance displayed an OD at 560 nm of 0.06 OD. This substance also registered an OD at 560 nm with human IL-21 (human) [8] of 0.06 OD. In the test with human IL-21 (human) [2], this substance displayed a % of maximum IL-21-induced B cell proliferation at 0.1 nM inhibitor (SDEV 5.34) of 96%, a % of maximum IL-21-induced B cell proliferation at 0.21 nM inhibitor (SDEV 10.3) of 115%, a % of maximum IL-21-induced B cell proliferation at 0.42 nM inhibitor (SDEV 17.1) of 107% and a % of maximum IL-21-induced B cell proliferation at 0.83 nM inhibitor (SDEV 15.3) of 114%. In the test with human IL-21 (human) [2], this substance returned a % of maximum IL-21-induced B cell proliferation at 1.67 nM inhibitor (SDEV 4.78) of 108%, a % of maximum IL-21-induced B cell proliferation at 3.33 nM inhibitor (SDEV 18.7) of 119%, a % of maximum IL-21-induced B cell proliferation at 6.67 nM inhibitor (SDEV 17.9) of 103% and a % of maximum IL-21-induced B cell proliferation at 13.3 nM inhibitor (SDEV 6.21) of 101%. In the test with human IL-21 (human) [2], this substance came in with a % of maximum IL-21-induced B cell proliferation at 26.7 nM inhibitor (SDEV 11.2) of 96%; a fold increase of plasma cells (CD38 high, IgD low), donor 1, 26.7 nM antibody (IL-21 without antibody: 176) of 174 fold; a fold increase of plasma cells (CD38 high, IgD low), donor 2, 26.7 nM antibody (IL-21 without antibody: 114) of 108 fold; a fold increase of plasma cells (CD38 high, IgD low), donor 3, 26.7 nM antibody (IL-21 without antibody: 47) of 47 fold. Further, in the test with human IL-21 (human) [2], the fold increase of plasma cells (CD38 high, IgD low), donor 4, 26.7 nM antibody (IL-21 without antibody: 68) amounted to 66 fold and the fold increase of plasma cells (CD38 high, IgD low), donor 5, 26.7 nM antibody (IL-21 without antibody: 22) turned out to be 23 fold. The substance further displayed an OD at 560 nm with human IL-21 (human) [9] of 0.06 OD.

(Values after patent publication US20150266954A1.)
